Source: US20220380801A1, “TRIPARTITE SYSTEMS FOR PROTEIN DIMERIZATION AND METHODS OF USE” (priority 2019, published 2022)

Legend:
[1] = tested on: luciferase reporter gene in HEK293 cells; test: Transcriptional regulation assay (split transcription factor), luciferase reporter; format: cell-based, human; conditions: protease variant-AD and DBD-PRSIM_23 (three tandem copies)
Description: The iDimerize regulated transcription system (Takara) was used to test the ability of PRSIM-based CIDs to regulate gene expression. […] The DBD and AD are separately fused to the two protein components of a CID such that, only in the presence of the small molecule inducer, the AD is brought into close proximity to the DBD, recruiting the transcription machinery to a promoter harbouring the DBD recognition sites. The iDimerize regulated transcription system (Takara) provides two vectors, pHet-Act1-2 and pZFHD1-Luciferase. The pHet-Act1-2 vector encodes two fusion proteins that represent a positive control: one is a fusion between FRB (T82L mutant; DmrC) and an activation domain (AD) from human p65 (SEQ ID NO: 42); the other is a fusion protein comprised of a DNA binding domain (ZFHD1) (SEQ ID NO: 43) fused to three tandem copies of FKBP12 (DmrA). These sequences are preceded by a CMV promoter and separated by an internal ribosome entry site (IRES). The ZFHD1 vector encodes luciferase preceded by an inducible promoter consisting of 12 copies of the recognition sequence of the ZFHD1 DBD upstream of a minimal IL-2 promoter. Binding of the DBD to its recognition sequence and recruitment of the transcriptional machinery by the AD initiates transcription of the luciferase reporter gene. The DNA sequence encoding HCV NS3/4A PR (S139A) was purchased as a DNA string from GeneArt and cloned into the pHet-Act1-2 vector as either an N-terminal fusion partner to the activation domain (SEQ ID NO: 44) (replacing FRB) or as a C-terminal fusion partner to the DNA binding domain (SEQ ID NO: 45) (replacing FKBP12) with flexible linkers (TGGGGSGGGGS (SEQ ID NO: 185) and SA, respectively) between the fusion partners. Subsequently, sequences encoding one copy of a panel of 12 PRSIM molecules (Table 2) were purchased as DNA strings from GeneArt and were cloned using Gibson assembly into the HCV NS3/4A PR (S139A)-containing pHetAct1-2 constructs described above, as a fusion partner to either the DBD (SEQ ID NOS: 46-56) or AD (SEQ ID NOS: 57-67), respectively. An equivalent construct was generated to replace the three copies of FKBP12 in pHet-Act1-2 with a single copy of FKBP12. The sequence of the constructs encoding both activation domain and DNA-binding domain fusion proteins was confirmed by Sanger sequencing of the entire coding region.
Sequences encoding the three HCV NS3/4A PR (S139A) mutants (Table 6) were purchased as DNA strings from GeneArt and were cloned using Gibson assembly into the pHetAct1-2 HCV NS3/4A PR (S139A)-PRSIM_23 (3 tandem copy) construct described above as a fusion partner to the AD (SEQ ID NOs: 211-216).
All transcriptional regulation assays were performed in adherent HEK293 cells cultured in 384-well plates. Cells enzymatically dissociated from a tissue culture flask were counted and plated at 7.5×10^3 cells/well in a 384-well plate. The plates were incubated overnight at 37° C. with 5% CO2 to allow the cells to adhere. On day 2, the cells were co-transfected with a pHet-Act1-2 plasmid (containing the FRB:FKBP12 control fusion proteins (Clontech) or the HCV NS3/4A PR (S139A):PRSIM fusion proteins) and a pZFHD1 plasmid (encoding either luciferase (Clontech) or NanoLuc-PEST (as described above)) using Lipofectamine LTX (ThermoFisher). On day 3, wells were treated with different concentrations of either A/C heterodimeriser (for the FRB:FKBP12 control), simeprevir or with vehicle control, and 24 hours later luminescence was quantified with an Envision plate reader immediately following addition of SteadyGlo luciferase substrate (Promega) or Nano-Glo Vivazine luciferase substrate (Promega). Alternatively, reverse transfections were carried out on Day 1, addition of dimeriser on Day 2 and luminescence quantified 24 hours later on Day 3.
Luminescence readings were converted into fold-change by dividing the signal in the presence of simeprevir by that in the absence of simeprevir.

[2] = tested on: GFP-PEST expression in monoclonal HEK293 cell lines; test: Flow cytometry kinetics of GFP-PEST expression after simeprevir removal; format: cell-based, human; conditions: 24h simeprevir induction, then removal
[3] = tested on: fluorogenic HCV protease FRET substrate; test: HCV NS3/4A PR protease activity assay (fluorogenic peptide cleavage); format: biochemical; conditions: compared to WT
Method: To assess enzyme activity, cleavage of a fluorogenic HCV protease FRET substrate with an EDANS-DABCYL donor-quencher pair by purified HCV NS3/4A PR and the S139A mutant (RET 51, AnaSpec) was measured. When in close proximity (10-100 Å), as would be the case for the intact peptide, EDANS is excited at 340 nm, and the energy emitted from EDANS (at 490 nm) is quenched by DABCYL. Cleavage of the peptide by the HCV NS3/4A PR separates DABCYL from EDANS, allowing detection of fluorescence at 490 nm.
Serial dilutions of HCV NS3/4A PR and the active site mutant S139A in assay buffer (HEPES pH 7.8, 5 mM DTT, 100 mM NaCl, 10% glycerol, 0.01% CHAPS) were incubated with the fluorogenic substrate at room temperature. Fluorescence was measured after 3 hours using a PerkinElmer Envision plate reader (excitation 340 nm, emission 490 nm).

B1: “WT” S139A: HCV NS3/4A protease with active site mutation S139A, SEQ ID NO: 2 (protein)
chain: MKKKGSVVIVGRINLSGDTAYAQQTRGEEGCQETSQTGRDKNQVEGEVQIVSTATQTFLATSINGVLWTVYHGAGTRTIASPKGPVTQMYTNVDKDLVGWQAPQGSRSLTPCTCGSSDLYLVTRHADVIPVRRRGDSRGSLLSPRPISYLKGSAGGPLLCPAGHAVGIFRAAVSTRGVAKAVDFIPVESLETTMRSP
modifications: HCV NS3/4A PR (S139A)
Q: How did the Max fold change [1] turn out when B1 was run?
A: 6973

Q: And the “GFP fluorescence after simeprevir removal” value [2]?
A: retained high GFP-fluorescence over 24 h

Q: What about the enzymatic activity [3] of the same molecule?
A: No enzymatic activity could be detected at most concentrations tested
